According to US20260242735A1 (UNIVERSIT T BASEL, published 2026):

Columns and labels:
Assay in all cases: alanine scan, flow cytometry;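 note: HEK293-T cells transiently expressing single-residue alanine mutants of CD33 (alanine swapped to serine), antibody binding read by fluorescence in duplicate, background-subtracted, expressed relative to wild-type CD33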
human CD33 Y233A = human CD33 Y233A (human, UniProt P20138 18-364)
human CD33 D205A = human CD33 D205A (human, UniProt P20138 18-364)
human CD33 G263A = human CD33 G263A (human, UniProt P20138 18-364)
Sequence of human CD33 G263A (P20138 18-364 G263A limits assumed): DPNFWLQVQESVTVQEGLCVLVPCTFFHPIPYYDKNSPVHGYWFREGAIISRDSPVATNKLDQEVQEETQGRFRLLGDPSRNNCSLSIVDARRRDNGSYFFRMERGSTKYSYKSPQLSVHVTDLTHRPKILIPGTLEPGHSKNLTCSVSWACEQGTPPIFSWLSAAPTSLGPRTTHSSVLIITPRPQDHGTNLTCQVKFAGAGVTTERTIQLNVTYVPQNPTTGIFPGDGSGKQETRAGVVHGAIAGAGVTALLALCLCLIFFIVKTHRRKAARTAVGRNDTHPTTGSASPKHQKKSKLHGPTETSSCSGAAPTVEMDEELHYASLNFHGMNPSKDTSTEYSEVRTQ

human CD33 R202A = human CD33 R202A (human, UniProt P20138 18-364)
human CD33 P244A = human CD33 P244A (human, UniProt P20138 18-364)
Sequence of human CD33 P244A (P20138 18-364 P244A limits assumed): as the sequence (P20138 18-364 G263A limits assumed) above, with P227A, A246G counted along it

human CD33 Q236A = human CD33 Q236A (human, UniProt P20138 18-364)
human CD33 A265S = human CD33 A265S (human, UniProt P20138 18-364)
human CD33 T223A = human CD33 T223A (human, UniProt P20138 18-364)
human CD33 Q213A = human CD33 Q213A (human, UniProt P20138 18-364)
Sequence of human CD33 Q213A (P20138 18-364 Q213A limits assumed): as the sequence (P20138 18-364 G263A limits assumed) above, with Q196A, A246G counted along it

human CD33 R225A = human CD33 R225A (human, UniProt P20138 18-364)
human CD33 P201A = human CD33 P201A (human, UniProt P20138 18-364)
human CD33 T239A = human CD33 T239A (human, UniProt P20138 18-364)
human CD33 T222A = human CD33 T222A (human, UniProt P20138 18-364)
human CD33 L197A = human CD33 L197A (human, UniProt P20138 18-364)
human CD33 Q251A = human CD33 Q251A (human, UniProt P20138 18-364)
Sequence of human CD33 Q251A (P20138 18-364 Q251A limits assumed): as the sequence (P20138 18-364 G263A limits assumed) above, with Q234A, A246G counted along it

human CD33 R254A = human CD33 R254A (human, UniProt P20138 18-364)
Sequence of human CD33 R254A (P20138 18-364 R254A limits assumed): as the sequence (P20138 18-364 G263A limits assumed) above, with R237A, A246G counted along it

human CD33 D246A = human CD33 D246A (human, UniProt P20138 18-364)
Sequence of human CD33 D246A (P20138 18-364 D246A limits assumed): as the sequence (P20138 18-364 G263A limits assumed) above, with D229A, A246G counted along it

human CD33 H206A = human CD33 H206A (human, UniProt P20138 18-364)
Sequence of human CD33 H206A (P20138 18-364 H206A limits assumed): as the sequence (P20138 18-364 G263A limits assumed) above, with H189A, A246G counted along it

human CD33 G241A = human CD33 G241A (human, UniProt P20138 18-364)
human CD33 Q228A = human CD33 Q228A (human, UniProt P20138 18-364)
Sequence of human CD33 Q228A (P20138 18-364 Q228A limits assumed): as the sequence (P20138 18-364 G263A limits assumed) above, with Q211A, A246G counted along it

human CD33 F243A = human CD33 F243A (human, UniProt P20138 18-364)
Sequence of human CD33 F243A (P20138 18-364 F243A limits assumed): as the sequence (P20138 18-364 G263A limits assumed) above, with F226A, A246G counted along it

human CD33 V258A = human CD33 V258A (human, UniProt P20138 18-364)
Sequence of human CD33 V258A (P20138 18-364 V258A limits assumed): as the sequence (P20138 18-364 G263A limits assumed) above, with V241A, A246G counted along it

human CD33 T253A = human CD33 T253A (human, UniProt P20138 18-364)
human CD33 A255S = human CD33 A255S (human, UniProt P20138 18-364)
human CD33 G218A = human CD33 G218A (human, UniProt P20138 18-364)
human CD33 A261S = human CD33 A261S (human, UniProt P20138 18-364)
human CD33 V221A = human CD33 V221A (human, UniProt P20138 18-364)
human CD33 P238A = human CD33 P238A (human, UniProt P20138 18-364)
human CD33 L270A = human CD33 L270A (human, UniProt P20138 18-364)
human CD33 V196A = human CD33 V196A (human, UniProt P20138 18-364)
Sequence of human CD33 V196A (P20138 18-364 V196A limits assumed): as the sequence (P20138 18-364 G263A limits assumed) above, with V179A, A246G counted along it

human CD33 E224A = human CD33 E224A (human, UniProt P20138 18-364)
Sequence of human CD33 E224A (P20138 18-364 E224A limits assumed): as the sequence (P20138 18-364 G263A limits assumed) above, with E207A, A246G counted along it

human CD33 G260A = human CD33 G260A (human, UniProt P20138 18-364)
human CD33 G220A = human CD33 G220A (human, UniProt P20138 18-364)
human CD33 G266A = human CD33 G266A (human, UniProt P20138 18-364)
human CD33 N209A = human CD33 N209A (human, UniProt P20138 18-364)
human CD33 T200A = human CD33 T200A (human, UniProt P20138 18-364)
human CD33 A269S = human CD33 A269S (human, UniProt P20138 18-364)
Sequence of human CD33 A269S (P20138 18-364 A269S limits assumed): as the sequence (P20138 18-364 G263A limits assumed) above, with A246G, A252S counted along it

human CD33 I262A = human CD33 I262A (human, UniProt P20138 18-364)
human CD33 T232A = human CD33 T232A (human, UniProt P20138 18-364)
human CD33 T211A = human CD33 T211A (human, UniProt P20138 18-364)
human CD33 T268A = human CD33 T268A (human, UniProt P20138 18-364)

Sequence of human CD33 D205A (P20138 18-364 D205A limits assumed): as the sequence (P20138 18-364 G263A limits assumed) above, with D188A, A246G counted along it

B1: Refmab #5 (antibody, V domains shown)
VH: QVQLVQSGAEVKKPGASVKVSCKASGYTFTNYDINWVRQAPGQGLEWIGWIYPGDGSTKYNEKFKAKATLTADTSTSTAYMELRSLRSDDTAVYYCASGYEDAMDYWGQGTTVTVSS
VL: DIQMTQSPSSLSASVGDRVTINCKASQDINSYLSWFQQKPGKAPKTLIYRANRLVDGVPSRFSGSGSGQDYTLTISSLQPEDFATYYCLQYDEFPLTFGGGTKVEIK
notes: Full-length format is human IgG1 Fc silent (PG-LALA); also made as Fab; The alanine scan used IgG or Fab
- Mean % WT Binding (human CD33 Y233A): 89.5 % WT binding
- Mean % WT Binding (human CD33 D205A): 12.3 % WT binding
- Mean % WT Binding (human CD33 G263A): 104 % WT binding
- Mean % WT Binding (human CD33 R202A): 123 % WT binding
- Mean % WT Binding (human CD33 P244A): 107 % WT binding
- Mean % WT Binding (human CD33 Q236A): 100 % WT binding
- Mean % WT Binding (human CD33 A265S): 99.7 % WT binding
- Mean % WT Binding (human CD33 T223A): 115 % WT binding
- Mean % WT Binding (human CD33 Q213A): 128 % WT binding
- Mean % WT Binding (human CD33 R225A): 124 % WT binding
- Mean % WT Binding (human CD33 P201A): 111 % WT binding
- Mean % WT Binding (human CD33 T239A): 107 % WT binding
- Mean % WT Binding (human CD33 T222A): 111 % WT binding
- Mean % WT Binding (human CD33 L197A): 102 % WT binding
- Mean % WT Binding (human CD33 Q251A): 94.7 % WT binding
- Mean % WT Binding (human CD33 R254A): 94.7 % WT binding
- Mean % WT Binding (human CD33 D246A): 115 % WT binding
- Mean % WT Binding (human CD33 H206A): 108 % WT binding
- Mean % WT Binding (human CD33 G241A): 109 % WT binding
- Mean % WT Binding (human CD33 Q228A): 129 % WT binding
- Mean % WT Binding (human CD33 F243A): 103 % WT binding
- Mean % WT Binding (human CD33 V258A): 95.9 % WT binding
- Mean % WT Binding (human CD33 T253A): 94.6 % WT binding
- Mean % WT Binding (human CD33 A255S): 88.3 % WT binding
- Mean % WT Binding (human CD33 G218A): 102 % WT binding
- Mean % WT Binding (human CD33 A261S): 79.8 % WT binding
- Mean % WT Binding (human CD33 V221A): 116 % WT binding
- Mean % WT Binding (human CD33 P238A): 157 % WT binding
- Mean % WT Binding (human CD33 L270A): 91 % WT binding
- Mean % WT Binding (human CD33 V196A): 84.5 % WT binding
- Mean % WT Binding (human CD33 E224A): 97.1 % WT binding
- Mean % WT Binding (human CD33 G260A): 102 % WT binding
- Mean % WT Binding (human CD33 G220A): 93.5 % WT binding
- Mean % WT Binding (human CD33 G266A): 111 % WT binding
- Mean % WT Binding (human CD33 N209A): 88.1 % WT binding
- Mean % WT Binding (human CD33 T200A): 98.3 % WT binding
- Mean % WT Binding (human CD33 A269S): 124 % WT binding
- Mean % WT Binding (human CD33 I262A): 97.5 % WT binding
- Mean % WT Binding (human CD33 T232A): 81.5 % WT binding
- Mean % WT Binding (human CD33 T211A): 80.4 % WT binding
- Mean % WT Binding (human CD33 T268A): 84.7 % WT binding

B2: Refmab #6 (antibody, V domains shown)
VH: QVQLQQPGAEVVKPGASVKMSCKASGYTFTSYYIHWIKQTPGQGLEWVGVIYPGNDDISYNQKFQGKATLTADKSSTTAYMQLSSLTSEDSAVYYCAREVRLRYFDVWGQGTTVTVSS
VL: EIVLTQSPGSLAVSPGERVTMSCKSSQSVFFSSSQKNYLAWYQQIPGQSPRLLIYWASTRESGVPDRFTGSGSGTDFTLTISSVQPEDLAIYYCHQYLSSRTFGQGTKLEIK
notes: as for B1
- Mean % WT Binding (human CD33 Y233A): 103 % WT binding
- Mean % WT Binding (human CD33 D205A): 3.1 % WT binding
- Mean % WT Binding (human CD33 G263A): 94.3 % WT binding
- Mean % WT Binding (human CD33 R202A): 92.2 % WT binding
- Mean % WT Binding (human CD33 P244A): 101 % WT binding
- Mean % WT Binding (human CD33 Q236A): 103 % WT binding
- Mean % WT Binding (human CD33 A265S): 107 % WT binding
- Mean % WT Binding (human CD33 T223A): 110 % WT binding
- Mean % WT Binding (human CD33 Q213A): 98 % WT binding
- Mean % WT Binding (human CD33 R225A): 104 % WT binding
- Mean % WT Binding (human CD33 P201A): 115 % WT binding
- Mean % WT Binding (human CD33 T239A): 87.3 % WT binding
- Mean % WT Binding (human CD33 T222A): 92.2 % WT binding
- Mean % WT Binding (human CD33 L197A): 103 % WT binding
- Mean % WT Binding (human CD33 Q251A): 126 % WT binding
- Mean % WT Binding (human CD33 R254A): 95.7 % WT binding
- Mean % WT Binding (human CD33 D246A): 106 % WT binding
- Mean % WT Binding (human CD33 H206A): 98.3 % WT binding
- Mean % WT Binding (human CD33 G241A): 101 % WT binding
- Mean % WT Binding (human CD33 Q228A): 100 % WT binding
- Mean % WT Binding (human CD33 F243A): 98.2 % WT binding
- Mean % WT Binding (human CD33 V258A): 95.9 % WT binding
- Mean % WT Binding (human CD33 T253A): 96.8 % WT binding
- Mean % WT Binding (human CD33 A255S): 96.8 % WT binding
- Mean % WT Binding (human CD33 G218A): 98 % WT binding
- Mean % WT Binding (human CD33 A261S): 56.7 % WT binding
- Mean % WT Binding (human CD33 V221A): 94.6 % WT binding
- Mean % WT Binding (human CD33 P238A): 114 % WT binding
- Mean % WT Binding (human CD33 L270A): 105 % WT binding
- Mean % WT Binding (human CD33 V196A): 116 % WT binding
- Mean % WT Binding (human CD33 E224A): 106 % WT binding
- Mean % WT Binding (human CD33 G260A): 97.2 % WT binding
- Mean % WT Binding (human CD33 G220A): 99.8 % WT binding
- Mean % WT Binding (human CD33 G266A): 82.6 % WT binding
- Mean % WT Binding (human CD33 N209A): 101 % WT binding
- Mean % WT Binding (human CD33 T200A): 110 % WT binding
- Mean % WT Binding (human CD33 A269S): 93.9 % WT binding
- Mean % WT Binding (human CD33 I262A): 99.4 % WT binding
- Mean % WT Binding (human CD33 T232A): 79.6 % WT binding
- Mean % WT Binding (human CD33 T211A): 92.2 % WT binding
- Mean % WT Binding (human CD33 T268A): 100 % WT binding
